# Source: ChEMBL document CHEMBL1156468, “Crystal structures of Saccharomyces cerevisiae N-myristoyltransferase with bound myristoyl-CoA and inhibitors reveal the functional roles of the N-terminal region” (J Biol Chem, 2007)
# Columns and labels:
# [1] = substrate: CC(C)C[C@H](NC(=O)CN)C(=O)N[C@@H](Cc1ccccc1)C(=O)N[C@@H](C)C(=O)N[C@@H](CO)C(=O)N[C@@H](CCCCN)C(=O)N[C@@H](CC(C)C)C(=O)N[C@@H](Cc1ccccc1)C(=O)O; assay: Activity of Saccharomyces cerevisiae NMT D108K mutant assessed as production of coenzyme A after 1 hr
# [2] = substrate: CC(C)C[C@H](NC(=O)CN)C(=O)N[C@@H](Cc1ccccc1)C(=O)N[C@@H](C)C(=O)N[C@@H](CO)C(=O)N[C@@H](CCCCN)C(=O)N[C@@H](CC(C)C)C(=O)N[C@@H](Cc1ccccc1)C(=O)O; assay: Ratio of kcat to Km for Saccharomyces cerevisiae NMT D108K mutant
# [3] = substrate: CC(C)C[C@H](NC(=O)CN)C(=O)N[C@@H](Cc1ccccc1)C(=O)N[C@@H](C)C(=O)N[C@@H](CO)C(=O)N[C@@H](CCCCN)C(=O)N[C@@H](CC(C)C)C(=O)N[C@@H](Cc1ccccc1)C(=O)O; assay: Activity of Saccharomyces cerevisiae NMT D22A mutant assessed as production of coenzyme A after 1 hr
# [4] = substrate: CC(C)C[C@H](NC(=O)CN)C(=O)N[C@@H](Cc1ccccc1)C(=O)N[C@@H](C)C(=O)N[C@@H](CO)C(=O)N[C@@H](CCCCN)C(=O)N[C@@H](CC(C)C)C(=O)N[C@@H](Cc1ccccc1)C(=O)O; assay: Ratio of kcat to Km for Saccharomyces cerevisiae NMT D22A mutant
# [5] = substrate: CC(C)C[C@H](NC(=O)CN)C(=O)N[C@@H](Cc1ccccc1)C(=O)N[C@@H](C)C(=O)N[C@@H](CO)C(=O)N[C@@H](CCCCN)C(=O)N[C@@H](CC(C)C)C(=O)N[C@@H](Cc1ccccc1)C(=O)O; assay: Activity of Saccharomyces cerevisiae NMT D23K mutant assessed as production of coenzyme A after 1 hr
# [6] = substrate: CC(C)C[C@H](NC(=O)CN)C(=O)N[C@@H](Cc1ccccc1)C(=O)N[C@@H](C)C(=O)N[C@@H](CO)C(=O)N[C@@H](CCCCN)C(=O)N[C@@H](CC(C)C)C(=O)N[C@@H](Cc1ccccc1)C(=O)O; assay: Ratio of kcat to Km for Saccharomyces cerevisiae NMT D23K mutant
# [7] = substrate: CC(C)C[C@H](NC(=O)CN)C(=O)N[C@@H](Cc1ccccc1)C(=O)N[C@@H](C)C(=O)N[C@@H](CO)C(=O)N[C@@H](CCCCN)C(=O)N[C@@H](CC(C)C)C(=O)N[C@@H](Cc1ccccc1)C(=O)O; assay: Activity of Saccharomyces cerevisiae NMT D23A mutant assessed as production of coenzyme A after 1 hr
# [8] = substrate: CC(C)C[C@H](NC(=O)CN)C(=O)N[C@@H](Cc1ccccc1)C(=O)N[C@@H](C)C(=O)N[C@@H](CO)C(=O)N[C@@H](CCCCN)C(=O)N[C@@H](CC(C)C)C(=O)N[C@@H](Cc1ccccc1)C(=O)O; assay: Ratio of kcat to Km for Saccharomyces cerevisiae NMT D23A mutant
# [9] = substrate: CC(C)C[C@H](NC(=O)CN)C(=O)N[C@@H](Cc1ccccc1)C(=O)N[C@@H](C)C(=O)N[C@@H](CO)C(=O)N[C@@H](CCCCN)C(=O)N[C@@H](CC(C)C)C(=O)N[C@@H](Cc1ccccc1)C(=O)O; assay: Activity of Saccharomyces cerevisiae NMT D22K mutant assessed as production of coenzyme A after 1 hr
# [10] = substrate: CC(C)C[C@H](NC(=O)CN)C(=O)N[C@@H](Cc1ccccc1)C(=O)N[C@@H](C)C(=O)N[C@@H](CO)C(=O)N[C@@H](CCCCN)C(=O)N[C@@H](CC(C)C)C(=O)N[C@@H](Cc1ccccc1)C(=O)O; assay: Ratio of kcat to Km for Saccharomyces cerevisiae NMT D22K mutant
# [11] = substrate: CC(C)C[C@H](NC(=O)CN)C(=O)N[C@@H](Cc1ccccc1)C(=O)N[C@@H](C)C(=O)N[C@@H](CO)C(=O)N[C@@H](CCCCN)C(=O)N[C@@H](CC(C)C)C(=O)N[C@@H](Cc1ccccc1)C(=O)O; assay: Activity of Saccharomyces cerevisiae NMT D108A mutant assessed as production of coenzyme A after 1 hr
# [12] = substrate: CC(C)C[C@H](NC(=O)CN)C(=O)N[C@@H](Cc1ccccc1)C(=O)N[C@@H](C)C(=O)N[C@@H](CO)C(=O)N[C@@H](CCCCN)C(=O)N[C@@H](CC(C)C)C(=O)N[C@@H](Cc1ccccc1)C(=O)O; assay: Ratio of kcat to Km for Saccharomyces cerevisiae NMT D108A mutant
protein,measurement,setting,value
"Glycylpeptide N-tetradecanoyltransferase (Saccharomyces cerevisiae S288c), P14743 D108K (protein) MSEEDKAKKLENLLKLLQLNNDDTSKFTQEQKKAMKDHKFWRTQPVKDFDEKVVEEGPIDKPKTPEDISDKPLPLLSSFEWCSIDVDNKKQLEDVFVLLNENYVEDRKAGFRFNYTKEFFNWALKSPGWKKDWHIGVRVKETQKLVAFISAIPVTLGVRGKQVPSVEINFLCVHKQLRSKRLTPVLIKEITRRVNKCDIWHALYTAGIVLPAPVSTCRYTHRPLNWKKLYEVDFTGLPDGHTEEDMIAENALPAKTKTAGLRKLKKEDIDQVFELFKRYQSRFELIQIFTKEEFEHNFIGEESLPLDKQVIFSYVVEQPDGKITDFFSFYSLPFTILNNTKYKDLGIGYLYYYATDADFQFKDRFDPKATKALKTRLCELIYDACILAKNANMDVFNALTSQDNTLFLDDLKFGPGDGFLNFYLFNYRAKPITGGLNPDNSNDIKRRSNVGVVML",Km,[1],13.9 µM
same,kcat,[1],1.94 s⁻¹
same,kcat/Km,[2],1.4 ×10⁵ /M/s
"Glycylpeptide N-tetradecanoyltransferase (Saccharomyces cerevisiae S288c), P14743 D22A (protein) MSEEDKAKKLENLLKLLQLNNADTSKFTQEQKKAMKDHKFWRTQPVKDFDEKVVEEGPIDKPKTPEDISDKPLPLLSSFEWCSIDVDNKKQLEDVFVLLNENYVEDRDAGFRFNYTKEFFNWALKSPGWKKDWHIGVRVKETQKLVAFISAIPVTLGVRGKQVPSVEINFLCVHKQLRSKRLTPVLIKEITRRVNKCDIWHALYTAGIVLPAPVSTCRYTHRPLNWKKLYEVDFTGLPDGHTEEDMIAENALPAKTKTAGLRKLKKEDIDQVFELFKRYQSRFELIQIFTKEEFEHNFIGEESLPLDKQVIFSYVVEQPDGKITDFFSFYSLPFTILNNTKYKDLGIGYLYYYATDADFQFKDRFDPKATKALKTRLCELIYDACILAKNANMDVFNALTSQDNTLFLDDLKFGPGDGFLNFYLFNYRAKPITGGLNPDNSNDIKRRSNVGVVML",Km,[3],19 µM
same,kcat,[3],1.72 s⁻¹
same,kcat/Km,[4],9.03 ×10⁴ /M/s
"Glycylpeptide N-tetradecanoyltransferase (Saccharomyces cerevisiae S288c), P14743 D23K (protein) MSEEDKAKKLENLLKLLQLNNDKTSKFTQEQKKAMKDHKFWRTQPVKDFDEKVVEEGPIDKPKTPEDISDKPLPLLSSFEWCSIDVDNKKQLEDVFVLLNENYVEDRDAGFRFNYTKEFFNWALKSPGWKKDWHIGVRVKETQKLVAFISAIPVTLGVRGKQVPSVEINFLCVHKQLRSKRLTPVLIKEITRRVNKCDIWHALYTAGIVLPAPVSTCRYTHRPLNWKKLYEVDFTGLPDGHTEEDMIAENALPAKTKTAGLRKLKKEDIDQVFELFKRYQSRFELIQIFTKEEFEHNFIGEESLPLDKQVIFSYVVEQPDGKITDFFSFYSLPFTILNNTKYKDLGIGYLYYYATDADFQFKDRFDPKATKALKTRLCELIYDACILAKNANMDVFNALTSQDNTLFLDDLKFGPGDGFLNFYLFNYRAKPITGGLNPDNSNDIKRRSNVGVVML",Km,[5],50.2 µM
same,kcat,[5],3.64 s⁻¹
same,kcat/Km,[6],7.26 ×10⁴ /M/s
"Glycylpeptide N-tetradecanoyltransferase (Saccharomyces cerevisiae S288c), P14743 D23A (protein) MSEEDKAKKLENLLKLLQLNNDATSKFTQEQKKAMKDHKFWRTQPVKDFDEKVVEEGPIDKPKTPEDISDKPLPLLSSFEWCSIDVDNKKQLEDVFVLLNENYVEDRDAGFRFNYTKEFFNWALKSPGWKKDWHIGVRVKETQKLVAFISAIPVTLGVRGKQVPSVEINFLCVHKQLRSKRLTPVLIKEITRRVNKCDIWHALYTAGIVLPAPVSTCRYTHRPLNWKKLYEVDFTGLPDGHTEEDMIAENALPAKTKTAGLRKLKKEDIDQVFELFKRYQSRFELIQIFTKEEFEHNFIGEESLPLDKQVIFSYVVEQPDGKITDFFSFYSLPFTILNNTKYKDLGIGYLYYYATDADFQFKDRFDPKATKALKTRLCELIYDACILAKNANMDVFNALTSQDNTLFLDDLKFGPGDGFLNFYLFNYRAKPITGGLNPDNSNDIKRRSNVGVVML",Km,[7],21.4 µM
same,kcat,[7],2.71 s⁻¹
same,kcat/Km,[8],1.27 ×10⁵ /M/s
"Glycylpeptide N-tetradecanoyltransferase (Saccharomyces cerevisiae S288c), P14743 D22K (protein) MSEEDKAKKLENLLKLLQLNNKDTSKFTQEQKKAMKDHKFWRTQPVKDFDEKVVEEGPIDKPKTPEDISDKPLPLLSSFEWCSIDVDNKKQLEDVFVLLNENYVEDRDAGFRFNYTKEFFNWALKSPGWKKDWHIGVRVKETQKLVAFISAIPVTLGVRGKQVPSVEINFLCVHKQLRSKRLTPVLIKEITRRVNKCDIWHALYTAGIVLPAPVSTCRYTHRPLNWKKLYEVDFTGLPDGHTEEDMIAENALPAKTKTAGLRKLKKEDIDQVFELFKRYQSRFELIQIFTKEEFEHNFIGEESLPLDKQVIFSYVVEQPDGKITDFFSFYSLPFTILNNTKYKDLGIGYLYYYATDADFQFKDRFDPKATKALKTRLCELIYDACILAKNANMDVFNALTSQDNTLFLDDLKFGPGDGFLNFYLFNYRAKPITGGLNPDNSNDIKRRSNVGVVML",Km,[9],23.8 µM
same,kcat,[9],2.5 s⁻¹
same,kcat/Km,[10],1.05 ×10⁵ /M/s
"Glycylpeptide N-tetradecanoyltransferase (Saccharomyces cerevisiae S288c), P14743 D108A (protein) MSEEDKAKKLENLLKLLQLNNDDTSKFTQEQKKAMKDHKFWRTQPVKDFDEKVVEEGPIDKPKTPEDISDKPLPLLSSFEWCSIDVDNKKQLEDVFVLLNENYVEDRAAGFRFNYTKEFFNWALKSPGWKKDWHIGVRVKETQKLVAFISAIPVTLGVRGKQVPSVEINFLCVHKQLRSKRLTPVLIKEITRRVNKCDIWHALYTAGIVLPAPVSTCRYTHRPLNWKKLYEVDFTGLPDGHTEEDMIAENALPAKTKTAGLRKLKKEDIDQVFELFKRYQSRFELIQIFTKEEFEHNFIGEESLPLDKQVIFSYVVEQPDGKITDFFSFYSLPFTILNNTKYKDLGIGYLYYYATDADFQFKDRFDPKATKALKTRLCELIYDACILAKNANMDVFNALTSQDNTLFLDDLKFGPGDGFLNFYLFNYRAKPITGGLNPDNSNDIKRRSNVGVVML",Km,[11],7.89 µM
same,kcat,[11],1.94 s⁻¹
same,kcat/Km,[12],2.45 ×10⁵ /M/s
